# Measurements: US20240034757A1
# Target: CXCL12_HUMAN (human) (UniProt P48061)
# Test: yeast surface display FACS re-test
# CXCL12_HUMAN (human), sequence (P48061 22-89 limits assumed): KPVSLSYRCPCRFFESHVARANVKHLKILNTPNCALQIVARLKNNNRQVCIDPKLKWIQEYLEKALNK
row,Substance,% cells over threshold fluorescence [%]
1,P1080_IXORI (from UniProt A0A090XBL6 20-118),53
2,P1095_IXORI (from UniProt A0A0K8RCE3 24-112),47

# Target: CXCL9_HUMAN (human) (UniProt Q07325)
# Test: yeast surface display FACS re-test
# CXCL9_HUMAN (human), sequence (Q07325 23-125 limits assumed): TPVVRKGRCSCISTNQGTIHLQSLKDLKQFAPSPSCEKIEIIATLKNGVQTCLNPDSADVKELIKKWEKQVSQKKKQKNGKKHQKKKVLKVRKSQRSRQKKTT
row,Substance,% cells over threshold fluorescence [%]
1,P458_IXORI (from UniProt A0A0K8R7D4 25-90),37
2,P1074_IXORI (from UniProt A0A0K8RDH6 29-96),35
3,P1080_IXORI (from UniProt A0A090XBL6 20-118),49
4,P1086_IXORI (from UniProt A0A0K8RK34 29-94),54
5,P1100_IXORI (from UniProt A0A0K8R556 29-96),55
6,P1124_IXORI (from UniProt A0A0K8RG61 29-83),31

# Target: CXCL10_HUMAN (human) (UniProt P02778)
# Sequence (P02778 22-98 limits assumed): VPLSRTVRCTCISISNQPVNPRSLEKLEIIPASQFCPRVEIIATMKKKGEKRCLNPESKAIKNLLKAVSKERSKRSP
# Test: yeast surface display FACS re-test
row,Substance,% cells over threshold fluorescence [%]
1,P1096_IXORI (from UniProt A0A0K8RKE4 24-114),50
2,P1134_IXORI (from UniProt A0A0K8RAI0 32-135),66
